Molecular target: HPV-6 L2E7 fusion protein (encoded by plasmid pGW53: pelB leader, HPV-6 L2, HPV-6 E7, His Tag) (human papillomavirus type 6 (HPV-6), clinical isolate H26) (UniProt P06464)

In the case of “draining (axillary) lymph node cells from B6CBA mice immunized with L2E7/Alum (cells without a defined receptor)”, the incorporation of tritiated thymidine (in-vitro lymphoproliferative response) (stimulation index) is reported as 50.

— patent publication US6123948
